To fix the notation:
B1: Fc-containing molecule with triple mutation K409D, K392D, K370D (other)
chain: EPKSCDKTHTCPPCPAPELLGGPSVFLFPPKPKDTLMISRTPEVTCVVVDVSHEDPEVKFNWYVDGVEVHNAKTKPREEQYNSTYRVVSVLTVLHQDWLNGKEYKCKVSNKALPAPIEKTISKAKGQPREPQVYTLPPSREEMTKNQVSLTCLVDGFYPSDIAVEWESNGQPENNYDTTPPVLDSDGSFFLYSDLTVDKSRWQQGNVFSCSVMHEALHNHYTQKSLSLSPGK
B2: Fc-containing molecule with triple mutation K409D, K392D, K439D (other)
chain: B1 chain with D155K, K224D
B3: Fc-containing molecule with triple mutation D399K, E356K, E357K (Fc fusion)
chain: HMAEVQLQQSGAELVKPGSSVKISCKASGYTFANNFMHWIKQQPGNGLEWIGWIYPGDGDTEYNQKFSGKATLTADKSSSTAYMQLNSLTSEDSAVYFCIRLTEGTTYWGQGVMVTVSSGGGGSGGGGSGGGGSQFVLTQPNSVSTNLGSTVKLSCKRSTGNIGSNYVNWYQQHEGRSPTTMIYRDDKRPDGVPDRFSGSIDGSSNSALLTINNVQTEDEADYFCQSYSRGVSPVFGGGTKLTVLAAAEPKSCDKTHTCPPCPAPELLGGPSVFLFPPKPKDTLMISRTPEVTCVVVDVSHEDPEVKFNWYVDGVEVHNAKTKPREEQYNSTYRVVSVLTVLHQDWLNGKEYKCKVSNKALPAPIEKTISKAKGQPREPQVYTLPPSRKKMTKNQVSLTCLVKGFYPSDIAVEWESNGQPENNYKTTPPVLKSDGSFFLYSKLTVDKSRWQQGNVFSCSVMHEALHNHYTQKSLSLSPGK

Residue numbers refer to the chain shown, from its start. In names and notes the source's numbering stands.

Results on three proteins are retold here after US20100286374A1 (Amgen, published 2010).

This series deals with the molecule itself. The experiment in a line: homodimer formation; expressed alone in 293-6E, western blot with goat anti-human Fc HRP. The text has this:
FIG. 11. […] Fc molecules were detected using goat-anti-human Fc HRP conjugated at 1:10,000.
DNA was transfected into human embryonic kidney cell line 293-6E using Lipofectamine™ 2000 reagent (Invitrogen). The cell culture supernatant was harvested 3-4 days after transfection and analyzed on SDS-PAGE Gels under non-reduced condition. The gel was then transferred to nitrocellulose membrane and subject to western analysis using peroxidase-conjugated goat anti-human IgG antibody (Jackson ImmunoResearch Laboratories) and results are shown in FIG. 10.
Mutants were made and cells transfected as described in Example 1. When the constructs were co-transfected, a 1:1 ratio of plasmids were used. Heterodimer and homodimers were detected by Western blot using goat-anti-human Fc HRP conjugated antibody. […] Similarly, Fc-containing molecules having triple mutations wherein negative-charged residues were changed to positive-charged residues (D399K,E356K,E357K) were unable to be detected when expressed alone. When co-expressed with an Fc-containing molecule having mutations of opposite charge polarity, however, heterodimers only were detected.
A general note: Immunoblotting shows a protein as a band on a membrane.
With B1, the binding result is “no binding”. Then B2, with “no binding”.

In the case of B3, the binding result is “no binding”.
